Patent publication US20240287172A1 (SCIRHOM, published 2024)

Target: T1, hiR2-FL-L539A-T7 (human, UniProt Q6PJF5 1-856)
T1 construct: on MEF-DKO cells
T1 sequence: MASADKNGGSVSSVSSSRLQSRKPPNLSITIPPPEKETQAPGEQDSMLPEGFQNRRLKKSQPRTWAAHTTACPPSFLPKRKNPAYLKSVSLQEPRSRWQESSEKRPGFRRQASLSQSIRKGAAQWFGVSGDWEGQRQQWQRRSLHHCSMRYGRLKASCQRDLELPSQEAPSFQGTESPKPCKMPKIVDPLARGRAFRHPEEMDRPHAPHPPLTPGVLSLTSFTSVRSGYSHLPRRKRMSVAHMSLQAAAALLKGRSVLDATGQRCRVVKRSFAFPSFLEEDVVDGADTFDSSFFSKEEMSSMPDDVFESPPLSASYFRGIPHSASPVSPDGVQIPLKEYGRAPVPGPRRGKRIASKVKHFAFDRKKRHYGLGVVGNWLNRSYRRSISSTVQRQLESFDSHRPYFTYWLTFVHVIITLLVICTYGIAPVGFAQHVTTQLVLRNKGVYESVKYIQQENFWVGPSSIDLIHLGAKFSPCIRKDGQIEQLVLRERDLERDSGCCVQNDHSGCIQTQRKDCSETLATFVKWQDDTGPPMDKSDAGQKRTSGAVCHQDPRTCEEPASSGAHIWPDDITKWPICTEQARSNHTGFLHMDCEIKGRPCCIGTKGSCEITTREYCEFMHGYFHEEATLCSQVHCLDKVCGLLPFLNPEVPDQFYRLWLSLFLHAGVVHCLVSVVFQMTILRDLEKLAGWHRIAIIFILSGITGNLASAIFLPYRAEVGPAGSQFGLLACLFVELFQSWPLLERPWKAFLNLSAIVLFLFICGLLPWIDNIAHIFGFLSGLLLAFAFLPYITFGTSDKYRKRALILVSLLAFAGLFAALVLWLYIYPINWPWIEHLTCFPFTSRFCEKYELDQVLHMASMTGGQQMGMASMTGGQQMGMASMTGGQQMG
Test: FACS, MEF-DKO cells, 3 µg/ml
Excerpt: In brief, immortalized MEF-DKO-hiR2-FL-G498A-T7, MEF-DKO-hiR2-FL-Q502R-T7, MEF-DKO-hiR2-FL-I509V-T7, MEF-DKO-hiR2-FL-Q512S-T7, MEF-DKO-hiR2-FL-R513E-T7, MEF-DKO-hiR2-FL-K514E-T7, MEF-DKO-hiR2-FL-D515E-T7, MEF-DKO-hiR2-FL-E518S-T7, MEF-DKO-hiR2-FL-T522V-T7, MEF-DKO-hiR2-FL-F523W-T7, MEF-DKO-hiR2-FL-Q527P-T7, MEF-DKO-hiR2-FL-D528I-T7, MEF-DKO-hiR2-FL-D529H-T7, MEF-DKO-hiR2-FL-T530P-T7, MEF-DKO-hiR2-FL-G531S-T7, MEF-DKO-hiR2-FL-P532A-T7, MEF-DKO-hiR2-FL-M534-T7, MEF-DKO-hiR2-FL-D535-T7, MEF-DKO-hiR2-FL-K536-T7, MEF-DKO-hiR2-FL-S537E-T7, MEF-DKO-hiR2-FL-D538L-T7, MEF-DKO-hiR2-FL-L539A-T7, MEF-DKO-hiR2-FL-Q541H-T7, MEF-DKO-hiR2-FL-T544Q-T7, MEF-DKO-hiR2-FL-S545F-T7, MEF-DKO-hiR2-FL-A547S-T7, MEF-DKO-hiR2-FL-T555V-T7, MEF-DKO-hiR2-FL-E557D-T7, MEF-DKO-hiR2-FL-A560S-T7 and MEF-DKO-hiR2-FL-S562E-T7 cells were harvested with 10 mM EDTA in PBS, washed and resuspended in FACS buffer (PBS, 3% FBS, 0.05% sodium azide), and seeded in Nunc U-bottom 96-well plates (Thermo Fisher Scientific, USA) at approximately 3×10⁵ cells per well. To pellet cells and remove supernatants, the plates were centrifuged at 1,500 rpm and 4° C. for 3 minutes. For primary staining, cells were resuspended in 100 μl per well of either FACS buffer alone (controls) or the purified antibodies 3, 5, 16, 22, 34, 42, 43, 44, 48, and 50 of the invention at 3 μg/ml in FACS buffer and incubated on ice for 1 hour. Afterwards, plates were centrifuged at 1,500 rpm and 4° C. for 3 minutes and washed twice with 200 μl per well of FACS buffer. For secondary staining, cells were spun down and resuspended in 100 μl per well of PE-conjugated goat anti-mouse IgG F(ab′)2 detection fragment (Dianova, Germany) diluted 1:100 in FACS buffer. Protected from light, the cell suspensions were incubated on ice for 1 hour. Plates were then centrifuged at 1,500 rpm and 4° C. for 3 minutes and washed three times with 200 μl per well of FACS buffer. Finally, cells were resuspended in 150 μl per well of FACS buffer and analyzed using a BD Accuri™ C6 Plus flow cytometer (Becton Dickinson, Germany).

B1: antibody 48 (antibody, V domains shown)
VH: QVQLQQSGTELVRPGTSVKVSCKASGYAFTNYLIEWVKQRPGQGLEWIGVINPGSGFTKYNEKFKGKATLTADKSSSTVYMHLSSLTSEDSAVYFCARGLYRAMDYWGQGTSVTVSS
VL: DIQMTQSPASQSASLGESVTITCLASQTIATWLAWYQQKPGKSPQLLIYGATTLADGVPSRFSGGGSGTKFSFKISSLQAEDFVSYYCQQLYSTPYTFGGGTKLEIK
notes: mouse IgG, kappa light chain; also called clone #48; purified antibody 48
For B1, the “loss of binding vs wild type” value was no less than 30%.

B2: antibody 34 (antibody, V domains shown)
VH: QVTLKESGPGILQPSQTLSLTCSFSGFSLSTFSLGVGWIRQSSGKGLEWLAHIWWDDEKYYNPALKSRLTISKDTSKNQVFLKIANVDAADTATYYCARAYYSKSYYALDYWGQGTSVTVSS
VL: DIQMTQSPSSLSASLGERVSLTCRASQEISGYLSWLQQKPDGTIKRLIYAASTLDSGVPKRFSGSRSGSDYSLAISSLESEDFADYYCLQYANFPFTFGSGTKLEIK
notes: mouse IgG, kappa light chain; also called clone #34; purified antibody 34
For B2, the “loss of binding vs wild type” value was no less than 95%.

B3: antibody 16 (antibody, V domains shown)
VH: QVTLKESGPGILQPSQTLSLTCSFSGFSLSTFALGVGWIRQPSGRGLEWLAHIWWDDDKYYNPALKSRLTISKDTSKNHVFLKIANVDTADTATYYCARITTYYYGMDYWGQGTSVTVSS
VL: DIVLSQSPATLSVTPGDSVSLFCRASQSIGNHLHWYQQESHASPRLLIKYASQSISGIPSRFSGSGSGTDFTLSINSVETEDFGMYFCQQSYNWPLTFGAGTKLELK
notes: mouse IgG, kappa light chain; also called clone #16; purified antibody 16
For B3, the “loss of binding vs wild type” value was no less than 30%.

B4: antibody 3 (antibody, V domains shown)
VH: QVTLKESGPGILQPSQTLSLTCSFSGFSLTTFAMGIGWVRQPSGKGLEWLAHIWWDGEKYNNPVLKSRLTISKDTSKNQVFLRIANVDTPDTATYYCARISSIYYIIDNWGQGTSVTVSS
VL: DIVLTQSPATLSVTPGHSVSLSCRASQSISNNLHWYQKKSHESPRLLIKYVSQSISGIPSRFSGSGSGTDFTLSINSVETEDFGMYFCQQSYNWPLTFGAGTKLELK
notes: mouse IgG, kappa light chain; also called clone #3; purified antibody 3
With B4 the “loss of binding vs wild type” value was no less than 95%.

B5: antibody 5 (antibody, V domains shown)
VH: QVTLKESGPGILQPSQTLSLTCSFSGFSLSTFGMGVGWIRQPSGKGLEWLAHIWWDDEKYYNSALKSRLTISKATSKNQAFLKIANVDTADTATYYCARISNYGSNYWYFNVWGTGTTVTVSS
VL: QVVLTQSPALMSASPGEKVTMTCSAGSSVSCMYWYQQKPGSSPRVLIYDTSNLASGVPARFTGSGSGTSYSLTISRMEAEDAASYYCQQWNSYPLTFGAGTKLELK
notes: mouse IgG, kappa light chain; also called clone #5; purified antibody 5
For B5, the “loss of binding vs wild type” value was no less than 95%.

B6: antibody 43 (antibody, V domains shown)
VH: QVALKESGPGILQPSQTLSLTCSFSGFSLSTFGMGVGWIRQSSGKGLEWLANIWWDDDKYYNPALKSRLTISKDASKNQAFLKIANVDTADTATYYCARIGNYGSNYWYFDVWGTGTTVTVSS
VL: QIVLTQSPAIMSASPGERVTMTCSANSRISYMYWYQQKPGSSPRLLIYDTSNLASGVPVRFSGSGSGTSYSLTISRMEAEDAATYNCQQWSSYPLTFGAGTKLELK
notes: mouse IgG, kappa light chain; also called clone #43; purified antibody 43
For B6, the “loss of binding vs wild type” value was no less than 95%.

B7: antibody 44 (antibody, V domains shown)
VH: QVTLKESGPGILQPSQTLSLTCSFSGFSLSTFGMGVGWIRQPSEKGLEWLAHIWWDDDKYYNPALKSRLTISKDTSKNQIFLKITNVDTAETATYYCSRIGNYGSNYWYFDVWGTGTTVTVSS
VL: QIVLTQSPAVMSASPGEKVTMTCTASSSVYYMYWYQQTPGSSPRLLIYDTSNLASGVPVRFSGSGSGTSYSLTISRMEAEDAATYYCQQWNTYPLTFGAGTKLELK
notes: mouse IgG, kappa light chain; also called clone #44; purified antibody 44
B7 was tested, and the “loss of binding vs wild type” value was no less than 95%.

B8: antibody 42 (antibody, V domains shown)
VH: QVTLKESGPGILQPSQTLSLTCSLSGFSLSTFGRGVGWIRQPSGKGLEWLAHIWWDDEKYYNPALKSRLTISKDTSKNQVFLRIANVDTADTATYYCARIQNYGSNYWYFDVWGTGTTVTVSS
VL: LIVLTQSPAIMSASPGEKVTMTCGATSRISYMFWYQQKPGSSPRVLIYDTSNLASGVPVRFSGSGSGTSYSLTISRVEAEDVATYYCQQWNSYPLTFGAGTKLELK
notes: mouse IgG, kappa light chain; also called clone #42; purified antibody 42
For B8, the “loss of binding vs wild type” value was no less than 95%.

B9: antibody 22 (antibody, V domains shown)
VH: QVTLKESGPGILQPSQTLSLTCSFSGFSLSTFGMGVGWIRQPSGKGLEWLAHIWWDDEKYYNSALKSRLTISKATSKNQVFLKIANVDTADTATYYCARISNYGSNYWYFNVWGTGTTVTVSS
VL: QVVLTQSPALMSASPGEKVTMTCSAGSSVSYMYWYQQKPGSSPRVLIYDTSNLASGVPARFTGSGSGTSYSLTISRMEAEDAATYYCQQWNSYPLTFGAGTKLELK
notes: mouse IgG, kappa light chain; also called clone #22; purified antibody 22
B9 was tested, and the “loss of binding vs wild type” value was no less than 95%.
